# Experiments:
# [1] = system: T1, O=c1[nH]c(=O)c2[nH]c(=O)[nH]c2[nH]1; assay: cells, lysate or membranes; type: cell-based, Homo sapiens; conditions: Na+ urate and vitamin C could compete for SVCT1-mediated transport
# T1 construct: full-length human SVCT1 WT, EGFP fusion (pEGFP-N1)
# [2] = system: T2, O=c1[nH]c(=O)c2[nH]c(=O)[nH]c2[nH]1; assay: cells, lysate or membranes; type: cell-based, Mus musculus; conditions: Na+
# T2 construct: mouse Svct1 WT, EGFP fusion
substance,measurement,setting,value
SVCT1 (Homo sapiens),Km,[1],1511 µM
Svct1 (Mus musculus),Km,[2],646.9 µM
